From patent publication US20200317807A1
Values belong to the binder of their own block, whether it stands above or below them.

Experiments:
[1] = molecular target: mouse CD70 (mouse) (UniProt O55237); experiment: cell-based or functional assay
[2] = molecular target: T1, CD70 (human) (UniProt P32970); experiment: cell-based or functional assay
T1 sequence: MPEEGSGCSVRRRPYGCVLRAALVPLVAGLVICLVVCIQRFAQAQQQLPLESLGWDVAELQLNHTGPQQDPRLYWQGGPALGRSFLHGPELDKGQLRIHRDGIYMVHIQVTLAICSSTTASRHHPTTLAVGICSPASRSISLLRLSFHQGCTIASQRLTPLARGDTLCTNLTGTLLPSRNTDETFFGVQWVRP

Chain of UniProt O55237 (O55237 whole entry): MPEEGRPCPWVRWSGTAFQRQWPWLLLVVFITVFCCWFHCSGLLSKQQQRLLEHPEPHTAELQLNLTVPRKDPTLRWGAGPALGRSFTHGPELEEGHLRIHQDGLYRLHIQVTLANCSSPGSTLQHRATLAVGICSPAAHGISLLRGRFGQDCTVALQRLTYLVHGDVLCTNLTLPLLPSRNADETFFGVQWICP

IFN-γ (pg/ml), mouse T cells/mCD27-CD3ζ CAR co-cultured with B16/mCD70 [1]: 642000 pg/mL
B1: mCD27-CD3ζ CAR (full-length mouse CD27 and a mouse CD3ζ T cell intracellular signaling domain) (receptor)
chain: PNSCPDKHYWTGGGLCCRMCEPGTFFVKDCEQDRTAAQCDPCIPGTSFSPDYHTRPHCESCRHCNSGFLIRNCTVTANAECSCSKNWQCRDQECTECDPPLNPALTRQPSETPSPQPPPTHLPHGTEKPSWPLHRQLPNSTVYSQRSSHRPLCSSDCIRIFVTFSSMFLIFVLGAILFFHQRRNHGPNEDRQAVPEEPCPYSCPREEEGSAIPIQEDYRKPEPAFYPRAKFSRSAETAANLQDPNQLYNELNLGRREEYDVLEKKRARDPEMGGKQQRRRNPQEGVYNALQKDKMAEAYSEIGTKGERRRGKGHDGLYQGLSTATKDTYDALHMQTLAPR

IFN-γ (pg/ml), co-culture with 624/CD70 (CD70 Positive) [2]: 6480 pg/mL
IFN-γ (pg/ml), co-culture with RCC 1581 (CD70 Pos) [2]: 11800 pg/mL
IFN-γ (pg/ml), co-culture with RCC 2095R (CD70 Pos) [2]: 5820 pg/mL
IFN-γ (pg/ml), co-culture with RCC 2219R (CD70 Pos) [2]: 12100 pg/mL
IFN-γ (pg/ml), co-culture with RCC 2245R (CD70 Pos) [2]: 9110 pg/mL
IFN-γ (pg/ml), co-culture with RCC 2246R (CD70 Pos) [2]: 8220 pg/mL
IFN-γ (pg/ml), co-culture with RCC 2261R (CD70 Pos) [2]: 7270 pg/mL
IFN-γ (pg/ml), co-culture with RCC 2361R (CD70 Pos) [2]: 2260 pg/mL
IFN-γ (pg/ml), co-culture with RCC 2654R (CD70 Pos) [2]: 7890 pg/mL
IFN-γ (pg/ml), co-culture with RCC 2657R (CD70 Pos) [2]: 3510 pg/mL
B2: full length (f) CD27-CD3ζ CAR (full-length human CD27 and a human CD3ζ T cell intracellular signaling domain) (receptor)
chain: ATPAPKSCPERHYWAQGKLCCQMCEPGTFLVKDCDQHRKAAQCDPCIPGVSFSPDHHTRPHCESCRHCNSGLLVRNCTITANAECACRNGWQCRDKECTECDPLPNPSLTARSSQALSPHPQPTHLPYVSEMLEARTAGHMQTLADFRQLPARTLSTHWPPQRSLCSSDFIRILVIFSGMFLVFTLAGALFLHQRRKYRSNKGESPVEPAEPCRYSCPREEEGSTIPIQEDYRKPEPACSPRVKFSRSADAPAYQQGQNQLYNELNLGRREEYDVLDKRRGRDPEMGGKPRRKNPQEGLYNELQKDKMAEAYSEIGMKGERRRGKGHDGLYQGLSTATKDTYDALHMQALPPR
